{
  "source": "IntAct's records for PubMed 23222643",
  "parents": {"B1": {"name": "Formin-like protein 3 (Mus musculus), Q6ZPF4-1 (parent)", "chain": "MGNLESTDGGPGEPPSVPLLLPPGKTPMPEPCELEERFALVLSSMNLPPDKARLLRQYDNEKKWDLICDQERFQVKNPPHTYIQKLQSFLDPNVTRKKFRRRVQESTKVLRELEISLRTNHIGWVREFLNDENKGLDVLVDYLSFAQCSVMFDFEGLESGDDGAFDKLRSWSRSIEDLQPPNALSAPFTNSLARSARQSVLRYSTLPGRRALKNSRLVSQKDDVHVCILCLRAIMNYQYGFNLVMSHPHAVNEIALSLNNKNPRTKALVLELLAAVCLVRGGHEIILAAFDNFKEVCKELHRFEKLMEYFRNEDSNIDFMVACMQFINIVVHSVEDMNFRVHLQYEFTKLGLEEFLQKSRHTESEKLQVQIQAYLDNVFDVGGLLEDAETKNVALEKVEELEEHVSHLTEKLLDLENENMMRVAELEKQLLQREKELESIKETYENTSNQVHTLRRLIKEKEEAFQRRCHLEPSARGLESMGGEALARVGPTELTEGIPPSDLDLLAPAPPTEETLPLPPPPAPPLPPPPPPLPDKCPPAPPLPGAAPSVVLTVGLSAIRIKKPIKTKFRLPVFNWTALKPNQINGTVFSELDDEKILEDLDLDRFEELFKTKAQGPALDLICSKNKTAQKAASKVTLLEANRAKNLAITLRKAGRSAEEICRAIHTFDLQTLPVDFVECLMRFLPTEAEVKLLRQYERERQPLEELAAEDRFMLLFSKVERLTQRMAGMAFLGNFQDNLQMLTPQLNAIIAASASVKSSQKLKQMLEIILALGNYMNSSKRGAVYGFKLQSLDLLLDTKSTDRKMTLLHFIALTVKEKYPELANFWQELHFVEKAAAVSLENVLLDVKELGRGMELIRRECSIHDNSVLRNFLSTNEGKLDKLQRDAKTAEEAYNAVVRYFGESPKTTPPSVFFPVFVRFIRSYKEAEQENEARKKQEEVMREKQLAQEAKKLDAKTPSQRNKWQQQELIAELRRRQAKEHRPVYEGKDGTIEDIITVLKSVPFTARTAKRGSRFFCDAAHHDESNC"}},
  "data": [
    {"variants_of": "B1", "conditions": "with acts_rabit ACTA1, P68135", "values": [
      {"variant": "I649A", "effect of a mutation on the interaction": "decreasing interaction strength"}
    ]}
  ]
}
